Where two headings read alike, the source gives them in different places.

Experiment [1] addresses T1, recombinant human FcεRIa extracellular region-mouse IgG2a Fc-6×His fusion protein (human, UniProt P12319 26-205).
T1 chain (part 1 of 2): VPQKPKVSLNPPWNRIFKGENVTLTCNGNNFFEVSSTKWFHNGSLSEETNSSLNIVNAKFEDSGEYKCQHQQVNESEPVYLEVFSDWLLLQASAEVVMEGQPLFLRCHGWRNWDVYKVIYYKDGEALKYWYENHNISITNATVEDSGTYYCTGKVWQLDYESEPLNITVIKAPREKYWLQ
T1 chain (part 2 of 2): HHHHHH
The experiment can be described thus: BLI. A general note: Biolayer interferometry detects binding as a change in optical thickness at a sensor tip.

Experiment [2] concerns the target T2, recombinantly expressed human FcεRIa-Fc protein (human, UniProt P12319 26-205).
T2 chain: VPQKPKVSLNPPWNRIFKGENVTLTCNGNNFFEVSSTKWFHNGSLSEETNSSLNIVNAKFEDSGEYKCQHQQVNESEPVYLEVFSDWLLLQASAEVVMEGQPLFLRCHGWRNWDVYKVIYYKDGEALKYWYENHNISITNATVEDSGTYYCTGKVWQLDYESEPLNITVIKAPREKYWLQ
Nature of the experiment: blocking ELISA; blocking human IgE binding. In general terms: In an ELISA, binding on a coated surface is turned into a signal by an enzyme label.

In experiment [3] the target is T2, recombinantly expressed human FcεRIa-Fc …. Nature of the experiment: blocking ELISA; blocking human IgE binding.
The target is the same in experiment [4]. Nature of the experiment: blocking ELISA; blocking human IgE binding.

B1: binding protein DB365 (designed binder)
chain: TKKCADSNPRGVSVFLFPPKPKDTLMISRTPEVTCVVVDLAPSKGTVKFNWYVDGVEVHNAKTKPREKQRNGTLTVVSVLTVLHQDWLNGKEYKCKVTHPHLPRALEKTISKAKGQPREPQVYTLPPSREEMTKNQVSLTCLVKGFYPSDIAVEWESNGQPENNYKTTPPVLDSDGSFFLYSKLTVDKSRWQQGNVFSCSVMHEALHNHYTQKSLSLSPGK
In the case of B1, the Kd (as a rule, the concentration at which binding is half-saturated) in experiment [1] is 0.719 nM. Moreover, the IC50 (as a rule, the midpoint of a concentration-inhibition curve) in experiment [2] was 12.8 nM.

B2: Her2-specific binding protein DB871 (antibody)
heavy: EVQLVESGGGLVQPGGSLRLSCAASGFTFTDYTMDWVRQAPGKGLEWVADVNPNSGGSIYNQRFKGRFTLSVDRSKNTLYLQMNSLRAEDTAVYYCARNLGPSFYFDYWGQGTLVTVSSASTKGPSVFPLAPSSKSTSGGTAALGCLVKDYFPEPVTVSWNSGALTSGVHTFPAVLQSSGLYSLSSVVTVPSSSLGTQTYICNVNHKPSNTKVDKKVEPKSCSRDFTPPTVKILQSSCDGGGHFPPTIQLLCLVSGYTPGTINITWLEDGQVMDVDLSTASTTQEGELASTQSELTLSQKHWLSDRTYTCQVTYQGHTFEDSTKKCADSNPRGVSVFLFPPKPKDTLMISRTPEVTCVVVDLAPSKGTVKFNWYVDGVEVHNAKTKPREKQRNGTLTVVSVLTVLHQDWLNGKEYKCKVTHPHLPRALEKTISKAKGQPREPQVYTLPPSREEMTKNQVSLTCLVKGFYPSDIAVEWESNGQPENNYKTTPPVLDSDGSFFLYSKLTVDKSRWQQGNVFSCSVMHEALHNHYTQKSLSLSPGK
light: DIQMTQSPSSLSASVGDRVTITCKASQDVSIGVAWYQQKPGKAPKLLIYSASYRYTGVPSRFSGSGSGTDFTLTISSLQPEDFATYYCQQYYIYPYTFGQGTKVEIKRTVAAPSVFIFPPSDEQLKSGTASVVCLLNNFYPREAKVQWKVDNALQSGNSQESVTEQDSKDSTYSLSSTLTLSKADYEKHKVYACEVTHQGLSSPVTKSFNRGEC
Take B2: in experiment [1], the Kd came to 1.91 nM. In experiment [3], the half-maximal inhibitory concentration (IC50) came to 61.2 nM.

B3: binding protein DB366 (designed binder)
chain: CADSNPRGVSVFLFPPKPKDTLMISRTPEVTCVVVDLAPSKGTVKFNWYVDGVEVHNAKTKPREKQRNGTLTVVSVLTVLHQDWLNGKEYKCKVTHPHLPRALEKTISKAKGQPREPQVYTLPPSREEMTKNQVSLTCLVKGFYPSDIAVEWESNGQPENNYKTTPPVLDSDGSFFLYSKLTVDKSRWQQGNVFSCSVMHEALHNHYTQKSLSLSPGK
B3: the Kd in experiment [1] stood at 1.68 nM. For the same molecule, the IC50 in experiment [3] is 59.7 nM; in experiment [2], 16.2 nM. Further, in experiment [4], the EC50 (usually the concentration at which the effect is half-maximal) stood at 8.94 nM.

B4: binding protein DB-B63 (designed binder)
chain: CADSNPRGVSVFLFPPKPKDTLMISRTPEVTCVVVDLAPSKGTVNFNWYVDGVEVHNAKTKPREKQRNGTLTVVSVLTVLHQDWLNGKEYKCRVTHPHLPRALEKTISKAKGQPREPQVYTLPPSREEMTKNQVSLTCLVKGFYPSDIAVEWESNGQPENNYKTTPPVLDSDGSFFLYSKLTVDKSRWQQGNVFSCSVMHEALHNHYTQKSLSLSPGK
Regarding B4, the EC50 in experiment [4] was 6.52 nM.

B5: Her2-specific binding protein DB872 (antibody)
heavy: EVQLVESGGGLVQPGGSLRLSCAASGFTFTDYTMDWVRQAPGKGLEWVADVNPNSGGSIYNQRFKGRFTLSVDRSKNTLYLQMNSLRAEDTAVYYCARNLGPSFYFDYWGQGTLVTVSSASTKGPSVFPLAPSSKSTSGGTAALGCLVKDYFPEPVTVSWNSGALTSGVHTFPAVLQSSGLYSLSSVVTVPSSSLGTQTYICNVNHKPSNTKVDKKVEPKSCDKTHTCPPCPADSNPRGVSVFLFPPKPKDTLMISRTPEVTCVVVDLAPSKGTVKFNWYVDGVEVHNAKTKPREKQRNGTLTVVSVLTVLHQDWLNGKEYKCKVTHPHLPRALEKTISKAKGQPREPQVYTLPPSREEMTKNQVSLTCLVKGFYPSDIAVEWESNGQPENNYKTTPPVLDSDGSFFLYSKLTVDKSRWQQGNVFSCSVMHEALHNHYTQKSLSLSPGK
light: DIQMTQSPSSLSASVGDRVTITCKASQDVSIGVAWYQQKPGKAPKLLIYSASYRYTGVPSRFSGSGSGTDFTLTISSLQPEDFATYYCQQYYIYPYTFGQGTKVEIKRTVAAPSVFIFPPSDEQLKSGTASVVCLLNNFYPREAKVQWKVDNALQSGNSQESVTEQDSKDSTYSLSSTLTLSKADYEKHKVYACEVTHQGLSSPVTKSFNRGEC
As to B5, the Kd in experiment [1] is 1.81 nM. The IC50 in experiment [3] is 77.4 nM.

B6: binding protein DB364 (designed binder)
chain: DFTPPTVKILQSSCDGGGHFPPTIQLLCLVSGYTPGTINITWLEDGQVMDVDLSTASTTQEGELASTQSELTLSQKHWLSDRTYTCQVTYQGHTFEDSTKKCADSNPRGVSVFLFPPKPKDTLMISRTPEVTCVVVDLAPSKGTVKFNWYVDGVEVHNAKTKPREKQRNGTLTVVSVLTVLHQDWLNGKEYKCKVTHPHLPRALEKTISKAKGQPREPQVYTLPPSREEMTKNQVSLTCLVKGFYPSDIAVEWESNGQPENNYKTTPPVLDSDGSFFLYSKLTVDKSRWQQGNVFSCSVMHEALHNHYTQKSLSLSPGK
As for B6, in experiment [1], the Kd turned out to be 1.78 nM. The IC50 in experiment [2] worked out at 15.7 nM.

B7: binding protein DB-B64 (designed binder)
chain: CPAPELLGGPSVFLFPPKPKDTLMISRTPEVTCVVVDLAPSKGTVKFNWYVDGVEVHNAKTKPREKQRNGTLTVVSVLTVLHQDWLNGKEYKCKVTHPHLPRALEKTISKAKGQPREPQVYTLPPSREEMTKNQVSLTCLVKGFYPSDIAVEWESNGQPENNYKTTPPVLDSDGSFFLYSKLTVDKSRWQQGNVFSCSVMHEALHNHYTQKSLSLSPGK
Regarding B7, in experiment [1], the Kd came to 4.68 nM. The EC50 in experiment [4] worked out at 24.5 nM.

B8: binding protein DB177 (designed binder)
chain: CSRDFTPPTVKILQSSCDGGGHFPPTIQLLCLVSGYTPGTINITWLEDGQVMDVDLSTASTTQEGELASTQSELTLSQKHWLSDRTYTCQVTYQGHTFEDSTKKCADSNPRGVSVFLFPPKPKDTLMISRTPEVTCVVVDLAPSKGTVKFNWYVDGVEVHNAKTKPREKQRNGTLTVVSVLTVLHQDWLNGKEYKCKVTHPHLPRALEKTISKAKGQPREPQVYTLPPSREEMTKNQVSLTCLVKGFYPSDIAVEWESNGQPENNYKTTPPVLDSDGSFFLYSKLTVDKSRWQQGNVFSCSVMHEALHNHYTQKSLSLSPGK
For B8, in experiment [2], the half-inhibitory concentration (IC50) is 18.4 nM.

Source of the values: patent US20260103522A1 (published 2026).
